Data taken from US20190169289A1 (Scripps Research, published 2019).
Read-outs that look alike come from different tables or passages of the source.

Columns and labels:
Assay in all cases: cell-based or functional assay
[1] = target: T1, CD22 (UniProt P20273 20-847, limits assumed)
[2] = target: T1, CD22; remark: listed apart in the source
[3] = target: T1, CD22; remark: listed apart in the source
[4] = target: T1, CD22; remark: listed apart in the source
[5] = target: T1, CD22; remark: listed apart in the source
[6] = target: T1, CD22; remark: listed apart in the source

B1: anti-CD22 (clone hLL2) Fab CTBV2 switch (2 GGGGS linker) (Fab)
light: DIQLTQSPSSLSASVGDRVTMSCKSSQSVLYSANHKNYLAWYQQKPGKAPKLLIYWASTRESGVPSRFSGSGSGTDFTFTISSLQPEDIATYYCHQYLSSWTFGGGTKLEIKRTVAAPSVFIFPPSDEQLKSGTASVVCLLNNFYPREAKVQWKVDNALQSGNSQESVTEQDSKDSTYSLSSTLTLSKADYEKHKVYACEVTHQGLSSPVTKSFNRGECGGGGSGGGGSNYHLENEVARLKKL
heavy: QVQLVQSGAEVKKPGSSVKVSCKASGYTFTSYWLHWVRQAPGQGLEWIGYINPRNDYTEYNQNFKDKATITADESTNTAYMELSSLRSEDTAFYFCARRDITTFYWGQGTTVTVSSARTKGPSVFPLAPSSKSTSGGTAALGCLVKDYFPEPVTVSWNSGALTSGVHTFPAVLQSSGLYSLSSVVTVPSSSLGTQTYICNVNHKPSNTKVDKKVEPKSCGGGGSGGGGSNYHLENEVARLKKL
**Q.** What does the source list for B1?
**A.** EC50 of cytotoxicity [1]: 0.0126 nM; cytotoxicity at 0.01 pM [2]: 7.08; cytotoxicity at 0.1 pM [2]: 2.9; cytotoxicity at 10 pM [2]: 22.1; cytotoxicity at 100 pM [2]: 45.8; cytotoxicity at 1000 pM [2]: 45.8; cytotoxicity at 10000 pM [2]: 46

B2: anti-CD22 (clone hLL2) Fab CTBV3 switch (3 GGGGS linker) (Fab)
light: DIQLTQSPSSLSASVGDRVTMSCKSSQSVLYSANHKNYLAWYQQKPGKAPKLLIYWASTRESGVPSRFSGSGSGTDFTFTISSLQPEDIATYYCHQYLSSWTFGGGTKLEIKRTVAAPSVFIFPPSDEQLKSGTASVVCLLNNFYPREAKVQWKVDNALQSGNSQESVTEQDSKDSTYSLSSTLTLSKADYEKHKVYACEVTHQGLSSPVTKSFNRGECGGGGSGGGGSGGGGSNYHLENEVARLKKL
heavy: QVQLVQSGAEVKKPGSSVKVSCKASGYTFTSYWLHWVRQAPGQGLEWIGYINPRNDYTEYNQNFKDKATITADESTNTAYMELSSLRSEDTAFYFCARRDITTFYWGQGTTVTVSSARTKGPSVFPLAPSSKSTSGGTAALGCLVKDYFPEPVTVSWNSGALTSGVHTFPAVLQSSGLYSLSSVVTVPSSSLGTQTYICNVNHKPSNTKVDKKVEPKSCGGGGSGGGGSGGGGSNYHLENEVARLKKL
**Q.** What does the source list for B2?
**A.** EC50 of cytotoxicity [1]: 0.0149 nM; cytotoxicity at 0.01 pM [2]: 2.54; cytotoxicity at 0.1 pM [2]: 7.9; cytotoxicity at 10 pM [2]: 17; cytotoxicity at 100 pM [2]: 51.3; cytotoxicity at 1000 pM [2]: 45.3; cytotoxicity at 10000 pM [2]: 41.5

B3: anti-CD22 (clone hLL2) IgG LCCT switch (antibody)
light: DIQLTQSPSSLSASVGDRVTMSCKSSQSVLYSANHKNYLAWYQQKPGKAPKLLIYWASTRESGVPSRFSGSGSGTDFTFTISSLQPEDIATYYCHQYLSSWTFGGGTKLEIKRTVAAPSVFIFPPSDEQLKSGTASVVCLLNNFYPREAKVQWKVDNALQSGNSQESVTEQDSKDSTYSLSSTLTLSKADYEKHKVYACEVTHQGLSSPVTKSFNRGECGGGGSNYHLENEVARLKKL
heavy: QVQLVQSGAEVKKPGSSVKVSCKASGYTFTSYWLHWVRQAPGQGLEWIGYINPRNDYTEYNQNFKDKATITADESTNTAYMELSSLRSEDTAFYFCARRDITTFYWGQGTTVTVSSARTKGPSVFPLAPSSKSTSGGTAALGCLVKDYFPEPVTVSWNSGALTSGVHTFPAVLQSSGLYSLSSVVTVPSSSLGTQTYICNVNHKPSNTKVDKKVEPKSCDKTHTCPPCPAPPVAGPSVFLFPPKPKDTLMISRTPEVTCVVVDVSHEDPEVKFNWYVDGVEVHNAKTKPREEQYNSTYRVVSVLTVLHQDWLNGKEYKCKVSNKGLPSSIEKTISKAKGQPREPQVYTLPPSRDELTKNQVSLTCLVKGFYPSDIAVEWESNGQPENNYKTTPPVLDSDGSFFLYSKLTVDKSRWQQGNVFSCSVMHEALHNHYTQKSLSLSPGK
**Q.** With B3 as the binder, how does the EC50 of cytotoxicity [3] read?
**A.** 0.0269 nM

**Q.** And the “cytotoxicity at 0.06 pM” value [4]?
**A.** -2.8

**Q.** And the “cytotoxicity at 0.30 pM” value [4]?
**A.** -7.88

**Q.** What about the “cytotoxicity at 1.52 pM” value [4] of the same binder?
**A.** -6.59

**Q.** What about the “cytotoxicity at 7.62 pM” value [4] of the same binder?
**A.** 0.95

**Q.** And the “cytotoxicity at 38.10 pM” value [4]?
**A.** 14.1

**Q.** What about the “cytotoxicity at 190.48 pM” value [4] of the same binder?
**A.** 24.4

**Q.** And the “cytotoxicity at 952.40 pM” value [4]?
**A.** 25.4

**Q.** What about the “cytotoxicity at 4762.00 pM” value [4] of the same binder?
**A.** 28.5

B4: anti-CD22 (clone hLL2) IgG HCCT switch (antibody)
light: DIQLTQSPSSLSASVGDRVTMSCKSSQSVLYSANHKNYLAWYQQKPGKAPKLLIYWASTRESGVPSRFSGSGSGTDFTFTISSLQPEDIATYYCHQYLSSWTFGGGTKLEIKRTVAAPSVFIFPPSDEQLKSGTASVVCLLNNFYPREAKVQWKVDNALQSGNSQESVTEQDSKDSTYSLSSTLTLSKADYEKHKVYACEVTHQGLSSPVTKSFNRGEC
heavy: QVQLVQSGAEVKKPGSSVKVSCKASGYTFTSYWLHWVRQAPGQGLEWIGYINPRNDYTEYNQNFKDKATITADESTNTAYMELSSLRSEDTAFYFCARRDITTFYWGQGTTVTVSSARTKGPSVFPLAPSSKSTSGGTAALGCLVKDYFPEPVTVSWNSGALTSGVHTFPAVLQSSGLYSLSSVVTVPSSSLGTQTYICNVNHKPSNTKVDKKVEPKSCDKTHTCPPCPAPPVAGPSVFLFPPKPKDTLMISRTPEVTCVVVDVSHEDPEVKFNWYVDGVEVHNAKTKPREEQYNSTYRVVSVLTVLHQDWLNGKEYKCKVSNKGLPSSIEKTISKAKGQPREPQVYTLPPSRDELTKNQVSLTCLVKGFYPSDIAVEWESNGQPENNYKTTPPVLDSDGSFFLYSKLTVDKSRWQQGNVFSCSVMHEALHNHYTQKSLSLSPGKGGGGSNYHLENEVARLKKL
**Q.** Which EC50 of cytotoxicity [3] does the source give for B4 here?
**A.** 0.0153 nM

**Q.** And the “cytotoxicity at 0.06 pM” value [4]?
**A.** 0.25

**Q.** And the “cytotoxicity at 0.30 pM” value [4]?
**A.** -1.05

**Q.** And the “cytotoxicity at 1.52 pM” value [4]?
**A.** -4.45

**Q.** What about the “cytotoxicity at 7.62 pM” value [4] of the same binder?
**A.** 8.18

**Q.** And the “cytotoxicity at 38.10 pM” value [4]?
**A.** 20.9

**Q.** And the “cytotoxicity at 190.48 pM” value [4]?
**A.** 31.8

**Q.** And the “cytotoxicity at 4762.00 pM” value [4]?
**A.** 24.1

B5: anti-CD22 (clone hLL2) IgG CTBV switch (antibody)
light: DIQLTQSPSSLSASVGDRVTMSCKSSQSVLYSANHKNYLAWYQQKPGKAPKLLIYWASTRESGVPSRFSGSGSGTDFTFTISSLQPEDIATYYCHQYLSSWTFGGGTKLEIKRTVAAPSVFIFPPSDEQLKSGTASVVCLLNNFYPREAKVQWKVDNALQSGNSQESVTEQDSKDSTYSLSSTLTLSKADYEKHKVYACEVTHQGLSSPVTKSFNRGECGGGGSNYHLENEVARLKKL
heavy: QVQLVQSGAEVKKPGSSVKVSCKASGYTFTSYWLHWVRQAPGQGLEWIGYINPRNDYTEYNQNFKDKATITADESTNTAYMELSSLRSEDTAFYFCARRDITTFYWGQGTTVTVSSARTKGPSVFPLAPSSKSTSGGTAALGCLVKDYFPEPVTVSWNSGALTSGVHTFPAVLQSSGLYSLSSVVTVPSSSLGTQTYICNVNHKPSNTKVDKKVEPKSCDKTHTCPPCPAPPVAGPSVFLFPPKPKDTLMISRTPEVTCVVVDVSHEDPEVKFNWYVDGVEVHNAKTKPREEQYNSTYRVVSVLTVLHQDWLNGKEYKCKVSNKGLPSSIEKTISKAKGQPREPQVYTLPPSRDELTKNQVSLTCLVKGFYPSDIAVEWESNGQPENNYKTTPPVLDSDGSFFLYSKLTVDKSRWQQGNVFSCSVMHEALHNHYTQKSLSLSPGKGGGGSNYHLENEVARLKKL
**Q.** Which results are given for B5?
**A.** EC50 of cytotoxicity [3]: 0.0347 nM; cytotoxicity at 0.06 pM [4]: 4.45; cytotoxicity at 0.30 pM [4]: -3.82; cytotoxicity at 1.52 pM [4]: 5.34; cytotoxicity at 7.62 pM [4]: 7.92; cytotoxicity at 190.48 pM [4]: 29.8; cytotoxicity at 952.40 pM [4]: 28.6; cytotoxicity at 4762.00 pM [4]: 38

B6: anti-CD22 (clone hLL2) Fab LCCT switch (Fab)
light: DIQLTQSPSSLSASVGDRVTMSCKSSQSVLYSANHKNYLAWYQQKPGKAPKLLIYWASTRESGVPSRFSGSGSGTDFTFTISSLQPEDIATYYCHQYLSSWTFGGGTKLEIKRTVAAPSVFIFPPSDEQLKSGTASVVCLLNNFYPREAKVQWKVDNALQSGNSQESVTEQDSKDSTYSLSSTLTLSKADYEKHKVYACEVTHQGLSSPVTKSFNRGECGGGGSNYHLENEVARLKKL
heavy: QVQLVQSGAEVKKPGSSVKVSCKASGYTFTSYWLHWVRQAPGQGLEWIGYINPRNDYTEYNQNFKDKATITADESTNTAYMELSSLRSEDTAFYFCARRDITTFYWGQGTTVTVSSARTKGPSVFPLAPSSKSTSGGTAALGCLVKDYFPEPVTVSWNSGALTSGVHTFPAVLQSSGLYSLSSVVTVPSSSLGTQTYICNVNHKPSNTKVDKKVEPKSC
**Q.** B6 was tested. Which EC50 of cytotoxicity [5] did it give?
**A.** 0.132 nM

**Q.** What about the “cytotoxicity at 0.01 pM” value [6] of the same binder?
**A.** -2.13

**Q.** What about the “cytotoxicity at 0.1 pM” value [6] of the same binder?
**A.** -0.84

**Q.** And the “cytotoxicity at 1 pM” value [6]?
**A.** -0.01

**Q.** What about the “cytotoxicity at 10 pM” value [6] of the same binder?
**A.** 4.8

**Q.** And the “cytotoxicity at 100 pM” value [6]?
**A.** 23.8

**Q.** And the “cytotoxicity at 1000 pM” value [6]?
**A.** 49.6

**Q.** And the “cytotoxicity at 10000 pM” value [6]?
**A.** 56.5

B7: anti-CD22 (clone hLL2) Fab HCCT switch (Fab, V domains shown)
VH: QVQLVQSGAEVKKPGSSVKVSCKASGYTFTSYWLHWVRQAPGQGLEWIGYINPRNDYTEYNQNFKDKATITADESTNTAYMELSSLRSEDTAFYFCARRDITTFYWGQGTTVTVSS
VL: DIQLTQSPSSLSASVGDRVTMSCKSSQSVLYSANHKNYLAWYQQKPGKAPKLLIYWASTRESGVPSRFSGSGSGTDFTFTISSLQPEDIATYYCHQYLSSWTFGGGTKLEIKR
**Q.** Which results are given for B7?
**A.** EC50 of cytotoxicity [5]: 1.34 nM; cytotoxicity at 0.01 pM [6]: 1.3; cytotoxicity at 0.1 pM [6]: 6.05; cytotoxicity at 1 pM [6]: 7.67; cytotoxicity at 10 pM [6]: 8.27; cytotoxicity at 100 pM [6]: 7.35; cytotoxicity at 1000 pM [6]: 25; cytotoxicity at 10000 pM [6]: 45.1

B8: anti-CD22 (clone hLL2) Fab NTBV switch (Fab, V domains shown)
VH: QVQLVQSGAEVKKPGSSVKVSCKASGYTFTSYWLHWVRQAPGQGLEWIGYINPRNDYTEYNQNFKDKATITADESTNTAYMELSSLRSEDTAFYFCARRDITTFYWGQGTTVTVSS
VL: DIQLTQSPSSLSASVGDRVTMSCKSSQSVLYSANHKNYLAWYQQKPGKAPKLLIYWASTRESGVPSRFSGSGSGTDFTFTISSLQPEDIATYYCHQYLSSWTFGGGTKLEIKR
**Q.** Which results are given for B8?
**A.** EC50 of cytotoxicity [5]: 0.135 nM; cytotoxicity at 0.01 pM [6]: 1.52; cytotoxicity at 0.1 pM [6]: 2.19; cytotoxicity at 1 pM [6]: 4.2; cytotoxicity at 10 pM [6]: 2.07; cytotoxicity at 1000 pM [6]: -2.07; cytotoxicity at 10000 pM [6]: 1.5
